Patent US20190202914A1 (HARBOUR BIOMED SHANGHAI, published 2019)
Positions count from the first letter of the chain named.

T1: human CTLA-4 expressed on cells (293-hCTLA-4 cells; CTLA-4-expressing CHO-K1 cells) (human, UniProt P16410 36-223)
T1 construct: also called CD152; cell-expressed CTLA-4
T1 sequence: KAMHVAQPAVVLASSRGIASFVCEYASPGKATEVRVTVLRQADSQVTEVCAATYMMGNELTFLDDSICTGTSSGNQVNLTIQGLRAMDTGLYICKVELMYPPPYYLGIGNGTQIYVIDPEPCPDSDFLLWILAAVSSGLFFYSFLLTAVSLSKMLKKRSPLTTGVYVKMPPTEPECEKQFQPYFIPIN

T2: cyno CTLA-4 expressed on 293 cells (293-cynoCTLA-4 cells) (cyno, UniProt G7PL88 36-223)
T2 construct: also called cynomolgus CTLA-4
T2 sequence: T1 sequence with S14N, L106M

T3: Recombinant human CTLA-4-his protein (CT4-H5229, Acro Bio) (human, UniProt P16410 36-161)
T3 construct: extracellular domain; Bought protein; also called Human CTLA-4^ECD-his; not shown: his tag
T3 sequence (looked up): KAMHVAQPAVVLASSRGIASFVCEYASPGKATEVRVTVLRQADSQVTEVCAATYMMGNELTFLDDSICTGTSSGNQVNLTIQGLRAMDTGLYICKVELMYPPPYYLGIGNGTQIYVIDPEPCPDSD

B1: CL24 (antibody, human IgG1, V domains shown)
VH: EVQLVETGGGLIQPGGSLRLSCAASGLNVSRHYLSWVRQAPGKGLEWVAVIYSGGGIEYVDSVKGRFTISRDNANNTLYLQMRSLRTEDSAVYYCARAIPRPHGSDIWGQGTMVTVSS
notes: Human heavy-chain-only antibody (HCAb): two heavy chains, no light chain
B2: CL11 (antibody, human IgG1, V domains shown)
VH: EVQLEETGGDLIQPGGSLRLSCTASGFNVSRIYMSWVRQAPGKGLEWVSVIYSGGSIYYADSVRGRFTISRDSSTNTVFLQMNSLRAEDSAVYYCARAVPSAPSSFDIWGQGTMVTVSS
notes: Human heavy-chain-only antibody (HCAb): two heavy chains, no light chain; also called clone 11
B3: CL11-dPTM (antibody, human IgG1, V domains shown)
VH: B2 VH with N28T
notes: HCAb variant with PTM removal
B4: CL30-dPTM (antibody, human IgG1, V domains shown)
VH: B2 VH with N28T, F79Y, S101H, S105N, I108K, M114R
notes: HCAb variant with PTM removal
B5: CL20 (antibody, human IgG1, V domains shown)
VH: EVQLVESGGGLVQPGGSLRLSCAASGFTFSNYWMHWVRQAPGKGLVWVSRINSDGSNTTYADSVKGRFTISRDNAKNTLYLQMNSLRAEDTAVYYCARWFGEHYYGMDVWGQGTTVTVSS
notes: as for B1

Assays:
[1] = target: T4, Recombinant mouse CTLA4-his protein (CT4-M52H5, Acro Bio) (mouse, UniProt P09793 36-161); assay: ELISA on coated recombinant mouse CTLA4-his, HRP anti-human IgG (H+L), OD450
T4 construct: Bought protein; also called murine CTLA-4; not shown: his tag
Experimental: Recombinant human or mouse CTLA4-his protein (CT4-H5229 for human protein, CT4-M52H5 for mouse protein, Acro Bio) was diluted in PBS to a concentration of 2 μg/mL, and 100 μL of the diluted CTLA-4-his protein was added per well to ELISA microplates, which were incubated overnight at 4° C. to coat the plates with the recombinant proteins. The plates were then blocked with ELISA blocking solution (containing 2% BSA, 0.05% (v/v) Tween-20, pH7.4 PBS buffer, w/v) at 37° C. for two hours and then incubated with anti-CTLA-4 antibodies with various concentrations for 1 hour at 37° C. The plates were washed and incubated with horseradish peroxidase (HRP) conjugated goat anti-human IgG (H+L) antibody (A18805, Life technologies) at 37° C. for one hour. 100 μL of tetramethylbenzidine (TMB) were added, and the plates were incubated at room temperature for 15 minutes. 50 μL of 1N HCl were added to terminate the reaction, and the OD450 nm was determined by an ELISA plate reader.

[2] = target: T1, human CTLA-4 expressed on cells …; assay: flow cytometry (MFI) on 293 cells expressing human CTLA-4, Alexa 488 anti-human (H+L) detection
Experimental: (§1) The culture medium was aspirated, and the cells were washed twice with HBSS (Hanks Balanced Salt Solution, Invitrogen). The cells were treated with enzyme-free cell dissociation solution (Versene solution, Invitrogen) and collected. The cells were then washed twice with HBSS, cell counts were determined, and cells were resuspended with HBSS at 2×10⁶ cells/mL. BSA was added to the cell suspension to a final concentration of 1%, and the cells were blocked for 30 minutes on ice and then washed twice with HBSS. The cells were collected after centrifugation and resuspended in FACS buffer (HBSS+1% BSA, v/v) at 2×10⁶ cells/mL. 100 μL of the cell suspension were then added to each well of a 96-well plate. 100 μL of purified anti-CTLA-4 antibodies from Example 2 or control antibodies were added to each well of the 96-well plate and incubated for 1 hour on ice, wherein the heavy chain and light chain of the Ipilimumab analogue had amino acid sequences of SEQ ID NO.: 199 and SEQ ID NO.: 200, respectively. Cells were washed twice with FACS buffer, and 100 μL of Alexa 488-labeled anti-human (H+L) antibody (Invitrogen) were added to the 96-well plate and incubated for 1 hour on ice. The samples were washed three times with FACS buffer, and 100 μL of fixation buffer (containing 4% paraformaldehyde, v/v) were added to each well and incubated for 10 minutes. The cells were then washed twice with FACS buffer and resuspended in 100 μL of FACS buffer.

[3] = target: T2, cyno CTLA-4 expressed on 293 cells …; assay: flow cytometry (MFI) on 293 cells expressing cynomolgus CTLA-4, Alexa 488 anti-human (H+L) detection
Experimental: as §1

[4] = target: T1, human CTLA-4 expressed on cells …; assay: cell-based blocking assay, flow cytometry: % blocking of biotinylated B7.1 ECD-Fc binding to 293-hCTLA-4 cells
Experimental: Cell-Based Receptor-Ligand Binding assay was performed to determine the ability of the anti-CTLA-4 antibodies to block the binding of CTLA-4 to its ligands B7.1. Recombinant B7.1^ECD-Fc protein (B71-H5259, Acro Bio) was biotinylated using EZ-LINK NHS-PEG12-Biotin (Thermo Scientific#21312) according to the manufacturer's instruction. Biotinylated B7.1^ECD-Fc protein was concentrated and free label removed by using Amicon centrifugal filter (10 kDa cut off). The extracellular domain of B7.1 corresponded to amino acids Val35-Asn242 of Uniprot database protein P33681.
The culture medium was aspirated, and the cells were washed twice with PBS. The cells were treated with enzyme-free cell dissociation solution (Versene solution, Invitrogen) and collected. Dissociation solution was neutralized by the addition of 8 mL of culture medium, and cell counts were determined. Cells were centrifuged at 300 g for 5 minutes and resuspended in blocking buffer (containing 2% BSA, pH 7.4 PBS buffer, w/v) at 1×10⁶ cells/mL. The cells were blocked for 15 minutes at 37° C. Meanwhile, the wells of 96-well round-bottom plates were blocked with 200 μL of blocking buffer for 1 hour at 37° C. The blocking buffer was discarded, and 200 μL of cells were dispensed to each well of the 96-well plates (2×10⁵ cells/well). The plates were centrifuged at 500 g for 5 minutes, and the supernatants were discarded. The cells were resuspended in 100 μL of anti-CTLA-4 antibodies prepared in blocking buffer with varying concentrations. 100 μL of biotinylated B7.1 ECD-Fc (60 μg/mL in blocking buffer) were added to each well of 96-well plate and mixed by shaking gently. The plates were incubated at 4° C. for 90 minutes and washed twice with 200 μL blocking buffer. The blocking buffer was discarded, and the cells were resuspended in 100 μL of streptavidin-Alexa 488 solution (Invitrogen, 1:500 in blocking buffer) and incubated at 4° C. for 1 hour. The plates were washed three times with blocking buffer and added with 200 μL of blocking buffer.
The mean fluorescence intensity (MFI) was determined using FACS Calibur (BD).

[5] = target: T1, human CTLA-4 expressed on cells …; assay: flow cytometry on 293F-hCTLA-4 cells
[6] = target: T3, Recombinant human CTLA-4-his protein …; assay: ELISA of 293 supernatants on coated human CTLA4-his

Row | Binder | binding result [1] | EC50 (read off the curve) [2] [nM] | EC50 (read off the curve) [3] [nM] | binding result [5] | further results
1 | B1 | no binding (tested: 533.3 nM) | ~2 | ~1 | – | –
2 | B2 | no binding (tested: 325.5 nM) | ~2 | ~1 | – | IC50 (read off the curve) [4]: 10 to 20 nM
3 | B3 | – | – | – | binds | –
4 | B4 | – | – | – | binds | –
5 | B5 | – | – | – | – | binding result [6]: binds
